The RNAGym collection of RNA variant scans (doi:10.7554/elife.80360)

B1: Hairpin Ribozyme (parent)
chain: GUCCUCUUUCACGUGCGCGUGAAAGAGAGAAGUGAACCAGAGAAACACACGUUGUGGUAUAUUACCUGGUA

Variants of: B1
Assay: self-cleavage, relative activity (ratio to wild type); higher = more cleavage; co-transcriptional

Going from C18A C48U to A26C A61U, the self-cleavage falls from 0.214 to 0.184.

First: A44C G68C
Second: U9A G57U
The self-cleavage of the first is lower: 0.0374 for the first, 0.182 for the second.

Going from G19A A26G to A11G U14C, the self-cleavage rises from 0.932 to 0.952.

First: A23G C48U
Second: C38A A61U
The self-cleavage of the first is higher: 0.232 for the first, 0.064 for the second.

First: C6U G21U
Second: U60A A71U
The self-cleavage of the first is lower: 0.468 for the first, 0.616 for the second.

First: G21U A23C
Second: A23G G68A
The self-cleavage of the first is higher: 0.595 for the first, 0.311 for the second.

Compared with A49U U70C, U14C G40U is higher in self-cleavage: 0.124 for the first, 0.188 for the second.

Going from G25A C48A to A36G A41G, the self-cleavage rises from 0.176 to 0.536.

Going from U58C U60A to A24C U53G, the self-cleavage falls from 0.845 to 0.733.

Going from C18G C66A to C37G C50G, the self-cleavage falls from 0.194 to 0.0454.

Compared with G13C A43G, U14A A49U is lower in self-cleavage: 0.144 for the first, 0.13 for the second.

Going from G13U A31G to U8G G29C, the self-cleavage falls from 0.499 to 0.141.

First: C12U C65U
Second: U7C G15C
The self-cleavage of the first is lower: 0.348 for the first, 0.948 for the second.

First: U8C A44U
Second: A39C G69U
The self-cleavage of the first is lower: 0.142 for the first, 0.147 for the second.

First: C6U A26U
Second: A26C G68U
The self-cleavage of the first is higher: 0.414 for the first, 0.186 for the second.

Compared with C10G, U7A G25U is lower in self-cleavage: 0.737 for the first, 0.229 for the second.

Going from A36U A43U to U8A G21C, the self-cleavage rises from 0.0848 to 0.504.

Compared with A11G A59C, A31U C48U is lower in self-cleavage: 0.17 for the first, 0.109 for the second.

First: G68U A71C
Second: U60C G68A
The self-cleavage of the first is higher: 0.329 for the first, 0.26 for the second.

Going from U7C U52G to U9G C66U, the self-cleavage falls from 0.653 to 0.429.

First: G32A U70A
Second: U7C A30C
The self-cleavage of the first is higher: 0.139 for the first, 0.121 for the second.

First: G1C C16U
Second: A26G A64C
The self-cleavage of the first is lower: 0.198 for the first, 0.303 for the second.

Going from G34C U67A to G25C A43C, the self-cleavage falls from 0.451 to 0.0652.

Compared with C18U U20A, G29U C50U is lower in self-cleavage: 0.848 for the first, 0.163 for the second.

Compared with C12A U52A, G51C A61C is lower in self-cleavage: 0.763 for the first, 0.0996 for the second.

First: G54U A59C
Second: G25C G69C
The self-cleavage of the first is lower: 0.0613 for the first, 0.187 for the second.

First: C12G A61C
Second: A30U C37U
The self-cleavage of the first is higher: 0.24 for the first, 0.206 for the second.

Going from C6A C48A to U60G C66U, the self-cleavage rises from 0.084 to 0.361.

Going from C12G A36U to C38A A71U, the self-cleavage falls from 0.517 to 0.129.

Compared with A24U A31U, U9G A35U is higher in self-cleavage: 0.0897 for the first, 0.631 for the second.

First: A22G C48G
Second: A22G C48A
The self-cleavage of the first is lower: 0.136 for the first, 0.16 for the second.

Compared with A28G U55G, C6A A22C is higher in self-cleavage: 0.427 for the first, 0.541 for the second.

First: A47U U62C
Second: G34C A44C
The self-cleavage of the first is higher: 0.264 for the first, 0.116 for the second.

Compared with A23C U52C, G15C G25C is lower in self-cleavage: 0.77 for the first, 0.687 for the second.

First: G1A C65G
Second: G34A G51U
The self-cleavage of the first is lower: 0.0867 for the first, 1.28 for the second.

Compared with A23C C37A, A22U A61G is lower in self-cleavage: 0.18 for the first, 0.155 for the second.

Compared with A31U G56A, G1C G27U is higher in self-cleavage: 0.0543 for the first, 0.142 for the second.

First: U14A A35C
Second: A45C U63A
The self-cleavage of the first is higher: 0.998 for the first, 0.0272 for the second.

First: C10U C37G
Second: G19A G42C
The self-cleavage of the first is higher: 0.299 for the first, 0.289 for the second.

Going from U2C A22U to U20C C46U, the self-cleavage falls from 0.296 to 0.103.

First: C18U U70C
Second: U33G U63C
The self-cleavage of the first is higher: 0.984 for the first, 0.217 for the second.

First: U55A A71G
Second: U2C A47C
The self-cleavage of the first is higher: 0.14 for the first, 0.0817 for the second.

Compared with A35C G54C, C12G A26G is higher in self-cleavage: 0.513 for the first, 0.75 for the second.

Going from A43C G69U to A26U A41G, the self-cleavage rises from 0.161 to 0.841.

Compared with G1A C48U, G1A A39G is higher in self-cleavage: 0.0691 for the first, 0.152 for the second.

Compared with C6G C48G, A30C A61G is higher in self-cleavage: 0.115 for the first, 0.12 for the second.

First: A39G A44C
Second: U33G A47U
The self-cleavage of the first is lower: 0.0747 for the first, 0.105 for the second.

Going from U63A G68U to U5G G40A, the self-cleavage falls from 0.225 to 0.0651.

Going from U8C C50G to G13U A35U, the self-cleavage rises from 0.119 to 0.83.

Compared with U5G A64G, U5G A64C is lower in self-cleavage: 0.177 for the first, 0.155 for the second.

Compared with G19C A61U, U14A C46A is lower in self-cleavage: 0.25 for the first, 0.232 for the second.

Compared with U9C C16A, A35G A71U is higher in self-cleavage: 0.761 for the first, 0.837 for the second.

First: A59C C66G
Second: U14G A23U
The self-cleavage of the first is lower: 0.253 for the first, 0.68 for the second.

Compared with G15A U20C, A41G U70C is higher in self-cleavage: 0.864 for the first, 0.981 for the second.

Compared with A41C U63A, A28C G68U is higher in self-cleavage: 0.108 for the first, 0.214 for the second.

Compared with A26G C48A, A39G G40A is lower in self-cleavage: 0.13 for the first, 0.102 for the second.

First: U2A C37U
Second: U62C C66A
The self-cleavage of the first is higher: 0.23 for the first, 0.13 for the second.

Compared with U7G A43U, G1U C48U is higher in self-cleavage: 0.123 for the first, 0.155 for the second.

First: G32C C48A
Second: A23C A31C
The self-cleavage of the first is lower: 0.112 for the first, 0.185 for the second.

First: C10A U53C
Second: A59G U63G
The self-cleavage of the first is higher: 0.888 for the first, 0.0571 for the second.

First: U8G C16A
Second: G21A A26C
The self-cleavage of the first is higher: 0.648 for the first, 0.0544 for the second.

First: G32U U33C
Second: G27A C48G
The self-cleavage of the first is higher: 0.222 for the first, 0.151 for the second.

Going from U9A A44U to G42C U63C, the self-cleavage rises from 0.109 to 0.148.

Compared with A44U A61U, C38A A59C is lower in self-cleavage: 0.124 for the first, 0.103 for the second.

Compared with A24G A36C, U52A C65G is lower in self-cleavage: 0.466 for the first, 0.258 for the second.

Going from G54U G69A to C37U U55G, the self-cleavage rises from 0.122 to 0.159.

Going from U7A C10U to A28G G56A, the self-cleavage falls from 0.799 to 0.296.

First: U20A A49U
Second: C50G U58G
The self-cleavage of the first is higher: 0.272 for the first, 0.147 for the second.

Going from A49G G68C to U14A A41U, the self-cleavage rises from 0.307 to 1.04.

Compared with G40U G57U, A39C G54A is lower in self-cleavage: 0.153 for the first, 0.121 for the second.

Going from A35U U67C to G15A, the self-cleavage rises from 0.176 to 0.906.

First: A39C G42U
Second: U70C A71U
The self-cleavage of the first is lower: 0.11 for the first, 1.64 for the second.

Going from C37U U62A to A24C A49U, the self-cleavage falls from 0.165 to 0.119.

Compared with U14G A49C, G27U C37U is higher in self-cleavage: 0 for the first, 0.22 for the second.

First: A24U G68C
Second: C10A A59C
The self-cleavage of the first is lower: 0.0904 for the first, 0.192 for the second.

Going from G17A U53C to A30G A36C, the self-cleavage falls from 1.01 to 0.

First: G21U A31C
Second: C48A G51C
The self-cleavage of the first is lower: 0.0844 for the first, 0.152 for the second.

First: C48A G51A
Second: C38A U58C
The self-cleavage of the first is lower: 0.106 for the first, 0.181 for the second.

Going from U62G A64G to U62G A64U, the self-cleavage falls from 0.166 to 0.0808.

Compared with A22U C38U, C38A C48U is lower in self-cleavage: 0.41 for the first, 0.135 for the second.

First: C18A G25U
Second: G25A A30C
The self-cleavage of the first is higher: 0.761 for the first, 0.087 for the second.

Compared with C3G G34U, C3A G42U is lower in self-cleavage: 1.01 for the first, 0.249 for the second.

Compared with G29C A41U, C3G C50G is higher in self-cleavage: 0.103 for the first, 0.127 for the second.

Work on C10G G69C yielded a self-cleavage of 0.23.
